Laboratory results as given in the DeepSol protein solubility set.

Experiment: soluble on expression in E. coli; label from the status in PepcDB or PDB records

| Sequence | soluble on expression in E. coli |
| --- | --- |
| MVGCLVVLLGAARKPARIFNLTPASASRYDSIHLCSLRTSLSCH | not soluble |
| MGSDKIHHHHHHMAWLLVGTKKYEDFEKNERVNRWYLNVRARSPISADIWRRSLLRYCTINNTTPEGLLDMAQKGTLKDNFQDFTIRMIAEGRRGAYLAKVKEILHSWIRFNDIDYKIRINIPNERLNETTMDERVPTKEELSKILRMGTVRSRVSVSLMAFSGLRPEVLGNYEGTDGLTLGDIEDLDIDTLTFKNVPAKINVRNGLSKTRLKYFTFLGQEGCGYLKDYLDHRKASGEILKKESALLAPDPGNVQTAHGFLRTALIAREIRKAIRNSNLSMRPYVLRVYFATALDIAESKGSISHPWRQYIMGHKGDIEATYSTNKRLLPETIEGMRSAYLKCTKFFETEEKGIKEEDYQKMLRDSAIDTLTGAFGITLTDDQKEELRNLDTAEYQKRLGEIFKDRKADLLNNGNSQKVIPFKDVEKYIEQGWEYVRDFPGNKAIVRLPS | not soluble |
| MDEKKCWLVVCVQSNREKKTYERLSALGFESFLPLQEETRRWSDRSKKVQRVVIPMVVFARIAPSERISVLRLPSVSRFMVLRGESAPAIIPDAQMERFRFMLDYSEEAVEMCSERIQPGEQVKVIKGPLTGLTGELITMDGKSKVAVRINMLGAAMVEVPVGFVERI | not soluble |
| MRIDPFKLAHWMNARKYTAAQTADLAGLPLDDLRRLLGDEANEPDPAAATALAEALSVEPSQLAADAHRNLTVVHKSAEEMHASRRPIQRDGIHFYNYYTLAAPEGRVAPVVLDILCPSDRLPALNNGHLEPAITVNLGPGDINGRWGEEITPQTWRVLHANHGGDRWITGDSYVEPSYCPHSYSLAGDAPARIVSYTAQSNISPLMTEANNWSTGAFEEALKALSGKVSAGSVLDLFLARRAHTRTSAAEAAGVPPADLEAALRSPASETGLTVLRTLGRALGFDYRVLLPADDQHDGVGKTWTTIEDSRRSRRTFGTYEAASMASAAHLPDLVGSFLRVDADGRGADLIDHAENHYVVTEGRLTLEWDGPDGPASVELEPDGSAWTGPFVRHRWHGTGTVLKFGSGAHLGYQDWLELTNTFEPAATLRRGRRDLAGWGYDN | soluble |
| MMIFEKIHTVPTSEELTNKAFKRAARAMSGKTIDGRDSRFKANESMLLTAANIFTDNLANIVRRFPSFEQLPRFYYELTDILVGVEKLKMSLASVDWASRKIHEVARSYVGKIRESDIPEPVRKEAFGRLASIINSINKDLLFLNEARNILRKLPDVQDEPTIVIAGYPNVGKSSFVSKITGATPEIAPYPFTTKGVTIGHFTRDGVRYQVMDTPGLLDRPMAERNDIERQAITAIHYLDAVVMVVIDPSESCGYELQDQRRLLAEIRENFNLPLLVVANKADRPEFMKMDEVELNMSTITGEGIEQVMDRLLEMIEEKRLRSLEEAPSEESDDESALLEHHHHHH | soluble |
| MIRSSKRSLSRDLVRFVQYVDDCVVKRYGFVVKSGSGIKLNGKKPQGFGTSSEDEDNNADMSDDSEEVPVSSIDKRKVASSKSRTGVVIEGDVVKPPVMKFVVLDKNRNVCQVYGNRHDLTSSAEDDSVDGDEETLVMSRDNGRKQSLKARNGVSVKGGGGKTTRVVKTVSFDENGNVCKVYGDTHDLTSSAEDDDSVDVGEETLVMCRDEGKRRSSKTGSRVLVKGSGGKTNRVVKTVSFDENGNVYKAYGDTPESSIISEEDDSTSGSNEGNGEEKGNVNEVEEIKYVPKENESFEEEEEKETDSENEVSSSEGSEGDKRVTKKEVQHQKGSLMFSPPLPLKMEP | soluble |
| MAAPLGGMFSGQPPGPPQAPPGLPGQASLLQAAPGAPRPSSSTLVDELESSFEACFASLVSQDYVNGTDQEEIRTGVDQCIQKFLDIARQTECFFLQKRLQLSVQKPEQVIKEDVSELRNELQRKDALVQKHLTKLRHWQQVLEDINVQHKKPADIPQGSLAYLEQASANIPAPLKPTLEHHHHHH | not soluble |
| MESVTRIKVRYAETDQMGVVHHSVYAVYLEAARVDFLERAGLPYHRVEARGVFFPVVELGLTFRAPARFGEVVEVRTRLAELSSRALLFRYRVEREGVLLAEGFTRHLCQVGERAARIPEDIYRALSVLHLK | soluble |
| MATHGQTCARPMCIPPSYADLGKAARDIFNKGFGFGLVKLDVKTKSCSGVEFSTSGSSNTDTGKVTGTLETKYKWCEYGLTFTEKWNTDNTLGTEIAIEDQICQGLKLTFDTTFSPNTGKKSGKIKSSYKRECINLGCDVDFDFAGPAIHGSAVFGYEGWLAGYQMTFDSAKSKLTRNNFAVGYRTGDFQLHTNVNDGTEFGGSIYQKVCEDLDTSVNLAWTSGTNCTRFGIAAKYQLDPTASISAKVNNSSLIGVGYTQTLRPGVKLTLSALVDGKSINAGGHKVGLALELEA | soluble |
| MGSDKIHHHHHHMRTSTHAEVLTYSDEQTSVRHLQNSAPLALKHTISPAEIRDNLPAGQGGVGFLFHATDWDTLSFSFHNVKHRNASFEEELWRTKPFIASPIYSGSQIIGANIACPVPLELWLGSPRGIKRFRETQFFPALELARQAGLNMVAMGASTPYACNYGALPRDTRPPHITTGHAATAAMLKDWAMHCCNELDLEFGKSKLALFGAAGRLGTTVAKYALYKDAPRELVLIDLPDKVNLLTEQAKELMASDLLGKTRVSVHTFSPHTPLPDFDGAILASSTSVPYLTAADLRRAQFWIDDSHPRAASVEAELASRGHTLYIECFARGPAGLNTTFPFRLPTTRDCYTCFAEGYSAWQEGIASDFIIGSPPVWSVSYTHSLLKKYGFAVGPFHGKNGSPITLDTQLRGKQELMSS | not soluble |
| MTATHDTIRLAEIAAKAAAEKLATNIAVIDVSDVMAISEVFVLASADNERQVRSIVEEIEDMLTAEGEEPKRREGNRENRWVLLDYGMLVIHVQRNTERDFYGLDRLYQDCPLIEVEGIDTMARPEEWAQDVDVRTVESLDEIPLAGEEPADEEF | not soluble |
| GPGSMPVPPPPPPPPPPPPPPPPPANSGGPSASVGGAAAAVFAEICQGGDNITARLRHVTDDQKMYKQNIRHGEVDMSELEHKKAAAEERRRAQQRTESTTGEEAAQPPVLTLEGDKRWVVKHQAGSPAVQLQLVLDKAEMRHAVRIENCHHAYITITNKVNSVSIVNCTKVQVALQVIVSSLEVLGCADVDVQVAQAAPTIDIERSTSVNVYLLDKDEARNTEIVTACSSTVNVLFPSEKEEDIVERAIPEQFVTRIVPDGKGGHKLCTKPSESF | soluble |
| MVSEEEEEEDGDAEETQDSEDDEEDEMEEDDDDSDYPEEMEDDDDDASYCTESSFRSHSTYSSTPGRRKPRVHRPRSPILEEKDIPPLEFPKSSEDLMVPNEHIMNVIAIYEVLRNFGTVLRLSPFRFEDFCAALVSQEQCTLMAEMHVVLLKAVLREEDTSNTTFGPADLKDSVNSTLYFIDGMTWPEVLRVYCESDKEYHHVLPYQEAEDYPYGPVENKIKVLQFLVDQFLTTNIAREELMSEGVIQYDDHCRVCHKLGDLLCCETCSAVYHLECVKPPLEEVPEDEWQCEVCVAHKVPGVTDCVAEIQKNKPYIRHEPIGYDRSRRKYWFLNRRLIIEEDTENENEKKIWYYSTKVQLAELIDCLDKDYWEAELCKILEEMREEIHRHMDITEDLTNKARGSNKSFLAAANEEILESIRAKKGDIDNVKSPEETEKDKNETENDSKDAEKNREEFEDQSLEKDSDDKTPDDDPEQGKSEEPTEVGDKGNSVSANLGDNTTNATSEETSPSEGRSPVGCLSETPDSSNMAEKKVASELPQDVPVGDFKSEKSNGELSESPGAGKGASGSTRIITRLRNPDSKLSQLKSQQVAAAAHEANKLFKEGKEVLVVNSQGEISRLSTKKEVIMKGNINNYFKLGQEGKYRVYHNQYSTNSFALNKHQHREDHDKRRHLAHKFCLTPAGEFKWNGSVHGSKVLTISTLRLTITQLENNIPSSFLHPNWASHRANWIKAVQMCSKPREFALALAILECAVKPVVMLPIWRESLGHTRLHRMTSIEREEKEKVKKKKKK | soluble |
| MGSDKIHHHHHHMIIKNRFTDEIEDAYLDYGSPPPEWQTVQNAAESLRSMPTDQLQSSAKSVFDYIRQNMDAILPRISRTTGKPMRYLRLEVDRSLSETGKIVVMDEPMFHDIPQYSVVYPNYQDPVSSLIVPSIFFLLNRVPVIVVPDRYAFLVPSLIYKAFASSGLPSGSFSISNGGIPEGFPSTRYAVSYSTDAMPEAAPGSGTLHADRGGPSMAVVWKDADVDFAAQNLVDSVIERHSIFLRSIVVHDEIFEYFVNRLKDLLPSIVAGDPEDLSTQLGPCASDIDLIRSLNMIAEARRARSIIYSKGPQGNIITPTIINGEITDMDDMVYTPVYILHHASSMEEVFELVSKVGPEALALYSSDSMLFRMVLSRTSAKYIGLNSYPEISYKPPISIPRRGLYL | not soluble |
| MSNSSMSVVILAAGKGTRMYSDLPKVLHPLAGKPMVQHVIDAAMKLGAQHVHLVYGHGGELLKKTLADPSLNWVLQAEQLGTGHAMQQAAPHFADDEDILMLYGDVPLISVDTLQRLLAAKPEGGIGLLTVKLDNPSGYGRIVRENGDVVGIVEHKDASDAQREINEINTGILVANGRDLKRWLSLLDNNNAQGEFYITDIIALAHADGKKIATVHPTRLSEVEGVNNRLQLSALERVFQTEQAEKLLLAGVMLLDPSRFDLRGELTHGRDITIDTNVIIEGHVILGDRVRIGTGCVLKNCVIGDDSEISPYTVLEDARLDANCTVGPFARLRPGAELAEGAHVGNFVEIKKARLGKGSKAGHLSYLGDAEIGAGVNIGAGTITCNYDGANKFKTIIGDDVFVGSDTQLVAPVTVANGATIGAGTTVTRDVAENELVISRVKQVHIQGWKRPVKKK | soluble |
| MGSDKIHHHHHHMQKLLSVIPSVDKLIKQLAGIALIQQYGHQAFVAQARQVIDSLRQHILTHQSLPVDQPADNLLSLIATNLQQTQQIAMKKVFNLTGTILHTNLGRAIWSEAAITAASDAMRHHSALEFDIEAGKRSHRDNTISQLLCEITGAEAACVVNNNAAAVLLMLATFAKGKEVIVSRGELVEIGGAFRIPDIMQQAGCKLVEVGTTNRTHLKDYRAAINENTALLMKVHTSNYQIQGFTHSVSEQQLVELGQEVGLPVMSDLGSGSLIDMATFGLPAEPLVQQKVASGVALVTFSADKLLGGPQAGIIVGKKADIEALQAHPLKRVLRCDKVILAGLEATLRHYLLPDQLTTHLPTLSLLTQSIDHLRVKATRLQNSLSKRLDARYHLQIEQSLAQIGSGALPTERLASLAVTITAPTQRDLLQLEQQFKMLKYPIIGRFAEQKLWLDLRSVAQFDQLIEMLEEK | not soluble |
| MSLQGLWIYPEDTEVLGVACKSLLKALTPRYQKVALFSPISGGCESLEECESLNPLEFHSAISKQKALELASTAQEELLFETILKRYDELQSTHDFVINLGCAPKFFLNAPLDLNTILAKHLNASVVAVAQTSLEYLKAMHSHILKKEAPFAVGLFAGETLEKPHFLSMSLCKQQCELEADLIESVLQIKSEIITPLAFQRGLEKKAKKQIKKVVLPESEKMKGFEGHHHHHH | not soluble |
| MGSDKIHHHHHHMMFGYIKPLKCELKVKEYEEFRGYYCGVCKALKKYSIIPRFLLTYEAASLGLLLSSLNNSDLKRKKELCIFTLKKVDFYSSSEIDEVARVFTALLREKLKDNYIDRKNPVYLFASAFLKKDPEISSLFENFYEMEKKEQDFKILAEEQGKIVGTILSKMVKEETQRKILYYLGLSLGKWLYIVDALDDFEKDKRKNVFNPLVKKYNGDLEKARSELRPHLKKCIDEMWKAYDLLDIKRNKTILDNIVYLGIPFITENVLVGKTCNLNHSTIL | not soluble |
| MGSDKIHHHHHHMINNEKYKELIKYLKSLGKVVLAFSGGVDSTFLLKASKEALGDNVKAVTILSPYIPKWEIREAEELVKELGVEHEIIKAPIIDSIKFNPEDRCYLCKTAVFSMILDAAKRQGYDCVIDGTNFDDIKDYRPGLRALKELSVKSPLLECKLTKAEIRTFSKELGLKTWDKPPYACLLTRIPYGNELKVEDFEKIERAERYMMSIGFRAIRVRCHDDLARIEVAREDRSKLFNEELLDTISENIKKCGFKYVSLDLQGYRVGSFNETIAKISDK | not soluble |
